Source: patent US20260184804A1

Legend:
[1] = target: His-tagged ectodomain of human transferrin receptor 1 (hTfR1), amino acids R121-F760 (human) (UniProt P02786); assay: SPR (Biacore T200, single-cycle); hTfR1 captured on amine-coupled hTf, binder as analyte 6.25-100 nM
[2] = target: His-tagged ectodomain of cynomolgus transferrin receptor 1 (cTfR1), amino acids R121-F760 (cynomolgus monkey); assay: SPR; binder captured on protein A, receptor as analyte 0.156-40 nM; with 250 nM hTf
[3] = target: His-tagged ectodomain of human transferrin receptor 1 (hTfR1), amino acids R121-F760 (human) (UniProt P02786); assay: as above
[4] = target: His-tagged ectodomain of cynomolgus transferrin receptor 1 (cTfR1), amino acids R121-F760 (cynomolgus monkey); assay: SPR; binder captured on protein A, receptor as analyte 0.156-40 nM; no hTf
[5] = target: His-tagged ectodomain of human transferrin receptor 1 (hTfR1), amino acids R121-F760 (human) (UniProt P02786); assay: as above
[6] = target: Apical domain construct of hTfR1 displayed on M13 phage (human); assay: Seqitope mutagenic scanning of the phage-displayed apical domain of hTfR1

His-tagged ectodomain of human transferrin receptor 1 (hTfR1), amino acids R121-F760 (human), sequence (P02786 other isoform, or with tags, fused parts or gaps limits assumed): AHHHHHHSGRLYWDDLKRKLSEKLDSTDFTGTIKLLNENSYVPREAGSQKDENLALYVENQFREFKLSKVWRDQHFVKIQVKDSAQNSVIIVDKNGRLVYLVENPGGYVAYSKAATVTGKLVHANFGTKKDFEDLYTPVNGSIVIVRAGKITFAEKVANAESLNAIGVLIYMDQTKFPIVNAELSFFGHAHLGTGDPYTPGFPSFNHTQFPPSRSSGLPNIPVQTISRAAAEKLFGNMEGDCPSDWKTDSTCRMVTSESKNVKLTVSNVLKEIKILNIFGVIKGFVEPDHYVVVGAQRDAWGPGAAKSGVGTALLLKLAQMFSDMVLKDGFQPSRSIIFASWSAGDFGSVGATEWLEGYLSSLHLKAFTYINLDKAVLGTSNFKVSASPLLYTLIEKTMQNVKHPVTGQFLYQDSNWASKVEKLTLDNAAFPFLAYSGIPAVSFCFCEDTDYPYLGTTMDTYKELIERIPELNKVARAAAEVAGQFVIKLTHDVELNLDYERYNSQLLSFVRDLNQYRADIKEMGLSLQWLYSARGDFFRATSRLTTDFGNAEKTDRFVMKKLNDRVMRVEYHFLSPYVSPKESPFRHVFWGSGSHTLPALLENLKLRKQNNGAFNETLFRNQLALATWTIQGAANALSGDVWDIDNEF
His-tagged ectodomain of cynomolgus transferrin receptor 1 (cTfR1), amino acids R121-F760 (cynomolgus monkey), sequence (Q5RDH6 other isoform, or with tags, fused parts or gaps limits assumed): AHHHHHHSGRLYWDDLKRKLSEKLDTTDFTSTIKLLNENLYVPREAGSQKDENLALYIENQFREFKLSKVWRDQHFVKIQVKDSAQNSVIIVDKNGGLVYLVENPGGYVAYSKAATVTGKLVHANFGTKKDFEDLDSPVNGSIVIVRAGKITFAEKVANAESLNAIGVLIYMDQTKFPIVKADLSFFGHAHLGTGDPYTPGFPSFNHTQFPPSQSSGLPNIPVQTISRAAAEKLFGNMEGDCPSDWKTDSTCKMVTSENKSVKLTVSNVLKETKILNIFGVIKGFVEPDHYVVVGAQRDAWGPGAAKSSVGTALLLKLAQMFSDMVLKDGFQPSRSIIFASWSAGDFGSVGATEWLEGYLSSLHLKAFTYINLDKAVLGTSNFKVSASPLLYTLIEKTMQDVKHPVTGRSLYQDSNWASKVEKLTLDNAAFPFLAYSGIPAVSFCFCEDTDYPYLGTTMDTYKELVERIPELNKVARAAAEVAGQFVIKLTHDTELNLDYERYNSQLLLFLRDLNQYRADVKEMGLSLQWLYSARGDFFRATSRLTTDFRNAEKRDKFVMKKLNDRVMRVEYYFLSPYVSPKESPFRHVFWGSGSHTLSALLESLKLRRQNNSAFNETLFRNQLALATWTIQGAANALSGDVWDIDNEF

Kd [1]: 19.9 pM
koff [1]: 5.63e-05 s⁻¹
kon [1]: 2.82e+06 M⁻¹ s⁻¹
Kd [2]: 330 pM
koff [2]: 8e-05 s⁻¹
kon [2]: 242000 M⁻¹ s⁻¹
Kd [3]: 83.4 pM
koff [3]: 5.77e-05 s⁻¹
kon [3]: 692000 M⁻¹ s⁻¹
Kd [4]: 414 pM
koff [4]: 8.85e-05 s⁻¹
kon [4]: 214000 M⁻¹ s⁻¹
Kd [5]: 101 pM
koff [5]: 8.87e-05 s⁻¹
kon [5]: 882000 M⁻¹ s⁻¹
Substance: Benchmark antibody 128.1 (BA1), full length human IgG1
Binding Ratio (BR) of residue D242 [6]: 3.56
Binding Ratio (BR) of residue E369 [6]: 6.88
Binding Ratio (BR) of residue G351 [6]: 3.27
Binding Ratio (BR) of residue L246 [6]: 3.36
Binding Ratio (BR) of residue P249 [6]: 2.64
Binding Ratio (BR) of residue R364 [6]: 2.64
Binding Ratio (BR) of residue V366 [6]: 4.15
